How the values were obtained:
HeLa cells = experiment: Cellular uptake in HeLa cells (confocal microscopy); format: cell-based; conditions: 24 h, live cells
Method: (§1) FIGS. 3A-C show cellular uptake of indicated PNAs. (3A) A confocal image of HeLa cells showing cellular and nuclear uptake of γPNA7-NLS containing TAMRA at 2 μM dose and after 24 h of treatment. (3B) A confocal image of U2932 cells showing cellular and nuclear uptake of γPNA7-NLS containing tetramethylrhodamine (TAMRA) at 2 μM dose and after 24 h of treatment. (3C) A histogram representing flow cytometry results for cellular uptake of γPNA7-NLS in U2932 cells after incubation at different doses for 24 h. The scale bar represents 10 μm.
(§2) Cellular uptake: HeLa and U2932 cells were purchased from ATCC (USA), cultured in EMEM and RPMI media, respectively (Invitrogen, USA), supplemented with […] and 1% Penstrep at 37° C. and 5% CO2.
(§3) Confocal Microscopy: HeLa cells were seeded in 8 chamber slides at 50,000 cells/well. U2932 cells were seeded in 24 well plate at 100,000 cells per well. γPNA7-NLS containing TAMRA was added to the cells at 2 μM concentration. After 24 h, cells were washed with PBS to remove uninternalized PNA. The nucleus of live cells was stained using Hoechst dye and were visualized under confocal microscope (Nikon AIR, USA) while cells are maintained in CO2 independent media. […] Cells were then suspended in PBS and analyzed using LSR Fortessa X-20 cell analyzer (BD Biosciences, USA). The data was analyzed using Flowjo software.

[1] = Biodistribution in U2932 xenograft mice (IVIS, confocal); format: in vivo
Method: FIGS. 5A-D show results of in vivo administration of indicated PNAs. (5A) IVIS® images of xenograft mice bearing tumors at indicated time points after systemic administration of PNA-TAMRA and γPNA7-NLS at 5 mg/kg. (5B) IVIS® imaging of organs harvested from xenograft mice treated with PNA-TAMRA and γPNA7-NLS after 6 h of systemic administration. (5C) Quantification of fluorescence from the organs harvested from PNA-TAMRA and γPNA7-NLS treated xenograft mice. (5D) Confocal microscopy images of tumor and kidney tissue cryo-sections from PNA-TAMRA and γPNA7-NLS treated U2932 xenograft mice. Scale bar, 30 μm.
FIGS. 6A-C show effect of systemic administration of indicated PNAs. (6A) IVIS® images of xenograft mice bearing tumors at indicated time points after systemic administration of γPNA7-NLS and γPNA6 at 5 mg/kg. (6B) IVIS® imaging of organs harvested from control, γPNA7-NLS, and γPNA6 treated mice after 24 hours of systemic administration. (6C) Confocal imaging of tumor, liver, and kidney sections obtained from xenograft mice after 24 h of treatment with γPNA7-NLS and γPNA6. Scale bar is 30 μm.
In vivo studies in xenograft mice model: U2932 derived xenografts were generated by implanting 10 million cells subcutaneously on the lower right flank of the female NSG mice (NOD.Cg-Prkdc^scidIl2rg^tm1Wj1/SzJ, #005557, Jackson Laboratories, USA) of 5-6 weeks. The mice were maintained in the animal care facility at the University of Connecticut following the required Institutional Animal Care and Use Committee guidelines (IACUC). Mice developed palpable tumors after 3-4 weeks of implantation. Tumor dimensions including length (l), breadth (b), and height (h) were measured using a caliper and volume was calculated using the formula for ellipsoid (0.5236×lbh).
Biodistribution studies: Mice with 600-800 mm^3 tumor volume were used for the biodistribution studies. γPNA7-NLS, γPNA6 and regular PNA-TAMRA (23 mer with 3 arginine residues) was injected systemically (retro-orbital) at 5 mg/kg dose. Live imaging of animals was performed using in vivo imaging (IVIS®) spectrum CT and epifluorescence was recorded at excitation/emission wavelength of 549/578 nm at 0, 0.25, 1, 2, 4, 6, 8 and 24 h. Mice were euthanized after 6 h and 24 h. Organs were collected and imaged via IVIS® to determine organ localization of PNA. Further organs were frozen in optimum cutting temperature media (OCT) at −80° C. The tumor, liver, and kidney from treated and untreated mice were sectioned using a cryostat to obtain 10 μm tissue sections. The sections were washed in PBS followed by fixation in 10% neutral buffered formalin. After washing with PBS, sections were permeabilized using 0.2% Triton™-X. The nucleus was stained using mounting media with DAPI (Invitrogen, USA). Sections were allowed to harden overnight, and images were taken using 60× oil lens on a Nikon AIR confocal microscope.

U2932 cells = experiment: Cellular uptake in U2932 cells (confocal microscopy, flow cytometry); format: cell-based; conditions: 24 h
Method: as §1, §2, §3

[2] = Biodistribution in transgenic Ep-myc mice (IVIS, confocal); format: in vivo; conditions: 24 hours
Method: FIGS. 8A-D show organ distribution after intravenous and subcutaneous administration of indicated PNAs. (8A) The organ distribution of γPNA-NLS TAMRA after intravenous (IV) and subcutaneous (SC) administration in transgenic mice model of B-cell lymphoma (Ep-myc). γPNA-NLS TAMRA was administered at 5 mg/kg via IV and SC route and organ distribution was determined via IVIS imaging after 24 h. (8B) Confocal microscopy images of different lymph nodes (LNs) after IV and SC injection of γPNA-NLS TAMRA. Blue indicates DAPI and red indicated TAMRA. Scale bar, 30 μm. (8C) C-myc protein levels in brachial lymph nodes of γPNA5-NLS treated mice in comparison to the control (untreated mice). N=4 mice per group. (8D) C-myc protein levels in axillary lymph nodes of γPNA5-NLS treated mice in comparison to the control (untreated mice). N=4 mice per group. Transgenic or Ep-myc mice were treated with γPNA5-NLS at 60 mg/kg dose over 2 days and mice were euthanized on day 3 for analysis.
In vivo studies in transgenic mice model: Ep-myc mice model of Burkitt lymphoma (B6.Cg-Tg(IgHMyc)22Bri/J, #002728, Jackson laboratories) which overexpresses c-myc was also used to test the efficacy of the designed PNA-NLS.
Biodistribution study: γPNA7-NLS containing TAMRA was administered via retro-orbital and subcutaneous route at 5 mg/kg dose in mice with visibly enlarged lymph nodes (cervical, brachial, axillary, and inguinal). Mice were euthanized after 24 h and organs were collected followed by imaging via IVIS®. All major organs and enlarged lymph nodes were collected and frozen in OCT media. The lymph nodes and organs were sectioned at 10 μm thickness using cryostat. The sections were then fixed, permeabilized and nucleus was stained with DAPI. The localization of PNA in lymph nodes was studied via confocal microscopy. Images were taken using 60× oil lens on a AIR confocal microscope.

[3] = organs harvested after 6 h, 5 mg/kg
[4] = xenograft mice, 5 mg/kg systemic, imaged up to 24 h

X3TCCCTCCCTCCGTTCTTTTTTCCCX7 (gamma PNA; NLS peptide; C-terminal TAMRA; gammaPNA to target; misc_feature 1 JJJTJJJT-linker- is covalently linked to the backbone, wherein J is pseudoisocytosine and the linker is 11-Amino-3,6,9-Trioxaundecanoic Acid (DCHA), represented as -OOO-; misc_feature 24 -K-linker-SEQ ID NO: 5-linker-label is covalently linked to the backbone, wherein the linker is 11-Amino-3,6,9-Trioxaundecanoic Acid (DCHA), represented as -OOO-, and the label i) [γPNA7-NLS]
cellular uptake, cytoplasm (confocal) (HeLa cells): significant accumulation of γPNA7-NLS in the cytoplasm | nuclear uptake (confocal, TAMRA overlap with Hoechst) (HeLa cells): accumulation of γPNA7-NLS within the nucleus | accumulation in tumor (confocal microscopy of cryo-sections) ([1]; 6 h, 5 mg/kg): superior accumulation | TAMRA intensity from harvested tumors (IVIS) ([1]; 6 h after systemic administration, 5 mg/kg): significant TAMRA intensity | accumulation in tumors in comparison to γPNA6 (confocal imaging) ([1]; 24 h, 5 mg/kg): significantly higher accumulation in tumors | fluorescence signal of harvested tumors in comparison to γPNA6 (IVIS) ([1]; 24 h after systemic administration, 5 mg/kg): higher fluorescence signal | accumulation in tumor in comparison to liver, kidney, and intestine [1, 3]: higher in comparison to the other organs | accumulation in tumors in comparison to PNA-TAMRA (quantified fluorescence) [1, 3]: more than 6 fold | tumor accumulation until (live IVIS imaging) ([1]; xenograft mice, 5 mg/kg retro-orbital, imaged up to 6 h): 6 h | retained within the tumors until (live IVIS imaging) [1, 4]: 24 h | significant accumulation in tumors starting from (live IVIS imaging) [1, 4]: 0.25 h | cellular and nuclear uptake (confocal) (U2932 cells): accumulation of γPNA7-NLS in both the nucleus and cytoplasm | cellular uptake by flow cytometry (U2932 cells; different doses): dose dependent increase in cellular uptake | accumulation in lymph nodes after IV administration (confocal) ([2]; 5 mg/kg IV): minimal accumulation in the lymph nodes | accumulation in lymph nodes after SC administration (confocal) ([2]; 5 mg/kg SC): accumulated significantly in multiple lymph nodes | accumulation in lymph nodes, SC route in comparison to IV route (IVIS) ([2]; 5 mg/kg): significantly higher accumulation

From US20260125428A1, “SYNTHETIC TRIPLEX PEPTIDE NUCLEIC ACID-BASED INHIBITORS FOR CANCER THERAPY” (University of Connecticut, priority 2022, published 2026)
